The record followed here is the RNAGym collection of RNA variant scans (doi:10.1073/pnas.2313332121).

The labels stand for the following.
B1: TPR t1 (parent)
chain: GACCAAUCUGCCCUCAGAGCUCGAGAACAUCUUCGGAUGCAGAGGAGGCAGGCUUCGGUGGCGCGAUAGCGCCAACGUCCUCAACCUCCAAUGCAUCCCACCACAUGAUGAUGCCUGAAGAGCCUUGGUUUUUUG

In this series the parent is B1. The experiment in a line: polymerase ribozyme fitness, log enrichment relative to wild type (log ratio); higher = more active; in vitro selection for triplet polymerase activity. The gist of the method:
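Genotype fitness is the logarithm of its enrichment divided by wild-type enrichment, using inverse-variance-weighted averages of replicates. That logarithm is base 2. Enrichment was measured by Illumina sequencing of input and output libraries from one triplicate in vitro selection round, with frozen incubation at −7 °C, on PCR-built, transcribed mutant libraries of each subunit of a heterodimeric triplet polymerase ribozyme, retaining genotypes with ≥10 input reads and ≥1 read per output.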
For U106A G110U, the “polymerase ribozyme fitness (log ratio)” value is -0.605. Turning to A46C C49G C73U, the “polymerase ribozyme fitness (log ratio)” value was -1.01.

Turning to C53A C79A, the “polymerase ribozyme fitness (log ratio)” value was -3.06.

For the variant G93C C99U, the “polymerase ribozyme fitness (log ratio)” value is -3.93.

Take G60A G69U C72U C86G A118U U129A: the “polymerase ribozyme fitness (log ratio)” value was -5.04. The same measure for G63U C85A C88U C101G C115A C124A U129C: -2.52.

Take C62U U78C C94A: the “polymerase ribozyme fitness (log ratio)” value is -1.92. Under C8G G71U stands 0.189. The same measure for G110A G127A U134C: -3.29; for C49A A84C C99U: -3.55. Under C12U A50G C56A C85G stands -1.73; under G69C C97G C101A G107A U112G U130G, -6.6. On to A43U G71U, for which the “polymerase ribozyme fitness (log ratio)” value was -1.89. For G60U C101U A111C, the “polymerase ribozyme fitness (log ratio)” value is 0.104. Under C64U A66U C72U C97A C123G stands -4.97; under A5G U9C U32C C40G G60U, -1.01; under C3A C11U C99U, -4.11.

For the variant C20U A50G, the “polymerase ribozyme fitness (log ratio)” value was -1.33. Under A26G C82A G113A A119U G120C stands -3.14; under C4U G52C, -0.368.

With C11G G107U, the “polymerase ribozyme fitness (log ratio)” value was -3.64. Under G58C G71A C82G C88G stands -2.39; under C12A A27G C34G G61U A118C C123G, -8.42; under G42A U116C, -3.35. For G65U C124A, the “polymerase ribozyme fitness (log ratio)” value is -4.07. The same measure for C64U C98U: -0.89; for C53A G93A: -0.768.

Regarding A50U A119U, the “polymerase ribozyme fitness (log ratio)” value is -1.31. The same measure for C73A U109C: -2.34; for G60A C79U: 0.344. As to G10A U55G G69C, the “polymerase ribozyme fitness (log ratio)” value was -1.36. The same measure for A90U A100U: -2.77; for A2C C40U: -2.06.

On to C40A G69C, for which the “polymerase ribozyme fitness (log ratio)” value was -2.42. The same measure for A6C A27G A121C: -0.0909. Under A29C G61U A90G U116G stands -5.84; under G36U U96A C97A G127A, -2.83; under A46C, -0.983.

A37U U54A G61C U109C: the “polymerase ribozyme fitness (log ratio)” value is -7.14. The same measure for C11G U125A: -0.25. Under G19U C82A stands -3.28; under A46U G48A C104U, -1.94; under G69C C86G A91U, -4.84. Under A24C G39C C114U G120C stands -5.54. For the variant U106A G127C, the “polymerase ribozyme fitness (log ratio)” value is -3.2. Under G44U U125A U131A stands -2.47; under U7C A18C U78C C82U, -1.52; under C73G C82U, -0.556. Under C85G C123A stands -0.897. Under G69U C72G C102U U125G stands -1.81.

Consider U7A C73A C88G A111U U129G, for which the “polymerase ribozyme fitness (log ratio)” value was -6.86.

U55A G57C U78C A103G C124A U125A: the “polymerase ribozyme fitness (log ratio)” value is -4.66. The same measure for G69A C89G C97A A105C G110U: -6.73; for A6G C12U G36U G52U C70U U96G A121C: -2.52. Under G110A G120U stands -1.91; under C11G C40U C53U U87A A90U U112A G127C, -2.43; under A46U C73G, -2.11.

As for C13U G17U C31U U106A C115U, the “polymerase ribozyme fitness (log ratio)” value was -1.65. Take C3U A37U G61A G117A: the “polymerase ribozyme fitness (log ratio)” value is -1.3.

Take A37U G71U G122A: the “polymerase ribozyme fitness (log ratio)” value is -1.17. Under C56G A74U U81A U87A stands -4.29.

C8U G69A: the “polymerase ribozyme fitness (log ratio)” value was -1.72. Under G10C G61U U109C stands -5.18. Under G23A G39U C53A G69U G71A C115G G117A stands -4.86; under A5U A6U A46C C104U C123A, 0.565; under G48A A100U, -1.19. With C12A G47A C72G G93A, the “polymerase ribozyme fitness (log ratio)” value was -4.15. Take C8U C13U A68G U129G: the “polymerase ribozyme fitness (log ratio)” value is -3.57. The same measure for A27U C101A: -4.18.

Consider C82A U116C, for which the “polymerase ribozyme fitness (log ratio)” value was -0.539. As to C15U A50C, the “polymerase ribozyme fitness (log ratio)” value is -1.84. Take G71A U92G: the “polymerase ribozyme fitness (log ratio)” value was -3.98. The same measure for G45A U55C C70U G128A: -4.09. The same measure for U106C G107U: -4.63; for U106A G122A: -0.693; for U54A U87A G117U: -2.44. Under G61C C98U stands -2.55; under C70U C76A A121U U125G, -0.883; under G45A C53G C64U, -0.958.

As to G61U U81G C86U G120U U133A, the “polymerase ribozyme fitness (log ratio)” value was -4.06. The same measure for G10C G61U: -1.1; for C8A C124G: 1.76. The same measure for A18U G57U C94G U112G: -5.68. The same measure for C34G U112A: -4.47; for G10A G52U G63A C70G: -2.51.

For the variant A16C C56U A84C C85U A100C, the “polymerase ribozyme fitness (log ratio)” value is -4.89. The same measure for C101G G117A: -3.52; for C20A G63A A74C U96A: -5.16; for A5G C22A A119G: -4.13. The same measure for A6U C15A C56A A75G A105C: -4.99; for U81A C88U: -0.655. The same measure for A5G G57A G63A: -2.06.

On to G19A C88A A95C C114G, for which the “polymerase ribozyme fitness (log ratio)” value was -4.8. As for C114A A119U, the “polymerase ribozyme fitness (log ratio)” value is -3.28.

In the case of A84U C114U, the “polymerase ribozyme fitness (log ratio)” value was -2.03. The same measure for C11U A18C C73U G127A: -5.36; for A50G C123A: 0.295; for A18U C82A U92A: -4.27. The same measure for C22A C72A C73A: -5.32. Under G117C G135U stands -3.37; under U7G C114U G127A, -1.17.

A6U U30C: the “polymerase ribozyme fitness (log ratio)” value was -2.71. Under C13U C88U stands 0.907; under C79U U109G, -5.09. The same measure for C8G G19U G71A G113A U130C: -2.08. Under U92A U129A stands -4.29; under A46G C85G, -2.68; under C11G C124A, 2.13. For C64U G120U, the “polymerase ribozyme fitness (log ratio)” value turned out to be 0.23. With U14A G71A U130A, the “polymerase ribozyme fitness (log ratio)” value was -3.52. The same measure for G71U U87G: -0.424; for C94U A108U C124A: -4.49. Under U7G C8A C56A C124U U129A stands -0.245. Under G36A G52A G63U stands -3.22. With C3A C40A G47A G60A A75U C86U C97U C123A U132A, the “polymerase ribozyme fitness (log ratio)” value is -1.07. Under C8A G47C stands -1.8. Under A46C G47A C53A U78C stands -1.4; under A6G C22A G48U G110U, -6.03; under G71U U126G, -2.34.

For the variant G10C C72U, the “polymerase ribozyme fitness (log ratio)” value was -1.32. The same measure for G60A C73A: -0.416; for U78G C86U: -0.465; for G42C G48A G63U U78C A83C G113U: -7.11. Under C11G A41C C56U G93A C123G G135U stands -3.49; under G69A C114U, -5.33. Regarding U131A, the “polymerase ribozyme fitness (log ratio)” value was -0.123.

For G51U C64U G117A U132A, the “polymerase ribozyme fitness (log ratio)” value was -5.22. With A43G C72U C94G C101U U116G, the “polymerase ribozyme fitness (log ratio)” value is -4.87. Under C3U G117A G120U stands -2.21. The same measure for C12A C40U A91C: -3.09; for C11G C12U G113A A118U: -3.33; for C11U C15G U112A: -2.98.

For G45U C64U A121G, the “polymerase ribozyme fitness (log ratio)” value was -0.662.

As to C8U C22U C53U A100U, the “polymerase ribozyme fitness (log ratio)” value was -5.15. The same measure for U87A C99A C115G G122U C124G: -7.12; for C8G G69U: 0.724; for A5C U55G: -0.672. The same measure for C40U G42A C56A C76G G93U C114G: -4.34; for A43C C53A C56A C62U: -3.14. On to G48A C76U C85G C89A U96C, for which the “polymerase ribozyme fitness (log ratio)” value was -5.66. The same measure for G19C U87A: -2.58.

For G57A C72A C85U C99G U106G, the “polymerase ribozyme fitness (log ratio)” value is -7.04.

Take A74U C99G U106A: the “polymerase ribozyme fitness (log ratio)” value is -6.33. The same measure for G23A G120A: -4.02; for C20G G23U U32A C98G C123G U131G: -6.64. The same measure for C70G A74G: -4.02; for U9G A46U U55G A103C: -4.6.

On to C4U C12A U59C A66C, for which the “polymerase ribozyme fitness (log ratio)” value was -2.92. For C8G U78A G113U C115A G120C, the “polymerase ribozyme fitness (log ratio)” value is -2.48. The same measure for G117A A121U: 1.08. With A90U C97U C104A U109G C124A, the “polymerase ribozyme fitness (log ratio)” value is -3.98. Under C4G G39A C40U G93A C102A stands -3.57; under A16U C62U, -1.92; under A46G A50C C85U A90G, -1.11.

Regarding C15U C99U G120C G122U, the “polymerase ribozyme fitness (log ratio)” value was -3.71.

Consider A5G G45A C104A, for which the “polymerase ribozyme fitness (log ratio)” value was -2.92. The same measure for C28U G71C C124U: -2.51; for G60A G93U U112C G113U: -5.49.

Turning to C34U A84G C89G, the “polymerase ribozyme fitness (log ratio)” value was -6.47.

Consider G35U G69U, for which the “polymerase ribozyme fitness (log ratio)” value is -0.908. Under G120A C124A stands 2.09. Under C104U U112G U116C stands -1.98; under A50G G69U C86G, -0.754; under G52A U116C, -0.22.

In the case of A26G G36U C72G, the “polymerase ribozyme fitness (log ratio)” value was -4.71.

Consider C8U U55C C64G U112A, for which the “polymerase ribozyme fitness (log ratio)” value was -6.22. For the variant A27G G57U, the “polymerase ribozyme fitness (log ratio)” value is -2.3.
